Measurements taken from article PMC10164081 (Structure (London, England : 1993), 2023).
One block for each binder: values may come before it. Where no end group is shown, it is not given here.

Legend:
[1] = molecular target: T1, purified Ric-8A (rat, UniProt Q80ZG1 1-530); assay: differential scanning fluorimetry
T1 sequence (looked up): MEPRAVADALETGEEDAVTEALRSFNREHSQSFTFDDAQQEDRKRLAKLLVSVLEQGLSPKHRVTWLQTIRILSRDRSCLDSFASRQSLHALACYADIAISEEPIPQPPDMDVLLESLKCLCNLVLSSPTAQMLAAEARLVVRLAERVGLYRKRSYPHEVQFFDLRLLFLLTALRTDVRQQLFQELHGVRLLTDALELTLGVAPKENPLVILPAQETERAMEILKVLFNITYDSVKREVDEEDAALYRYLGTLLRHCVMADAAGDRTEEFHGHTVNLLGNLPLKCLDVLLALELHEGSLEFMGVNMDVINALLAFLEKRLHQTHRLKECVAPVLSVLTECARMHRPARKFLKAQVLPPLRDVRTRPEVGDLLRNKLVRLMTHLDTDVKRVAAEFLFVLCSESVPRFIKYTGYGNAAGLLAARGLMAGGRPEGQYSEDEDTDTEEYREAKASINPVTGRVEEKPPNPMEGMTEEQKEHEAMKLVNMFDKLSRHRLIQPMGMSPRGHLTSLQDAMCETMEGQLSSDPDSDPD

[2] = molecular target: Gαolf/13 SwII chimeric sensor (human); assay: cell-based or functional assay
[3] = molecular target: Gαolf/i1 SwII chimeric sensor (human); assay: cell-based or functional assay

Binder: RDVKDTILHDNLKQLMLQ-NH2 [Gα13 C-term amidated peptide]
- maximal thermal shift (ΔTm) [1]: 3.6 °C

- folding of the Switch II chimeric Gαolf-RLuc sensor (luminescence) by Ric-8B [2]: 50 % decrease
- folding of the Switch II chimeric Gαolf-RLuc sensor (luminescence) by Ric-8B [3]: 88 % of Gαolf
B1: phosphorylated Ric-8B (natural protein, mouse, UniProt Q80XE1-1 1-560, looked up)
chain: MDEERALYIVRAGEAGAIERVLRDYSDKHRATFKFESADEDKRKKLCEGIFKVLVKEVPTTCQVSCLEVLRILSRDKKILVPVTTKENMQILLRLAKLHESDDSLEKVSEFPVIVESLKCLCNIVFNSQMAQQLSLELNLAAKLCNLLRKCKDRKFINDIKCFDLRLLFVLSLLHTDIRSQLRYELQGLPLLTQILESAFSIKWTDEYESAIDHNGPPLSPQETDCAIEALKALFNVTVDSWKVHKESDSHQFRVMAAVLRHCLLIVGPTEDKTEELHSNAVNLLSNVPVSCLDVLICPLTHEETAQEAATLDELPSDKTTEKDTALKNSTMVYNGMNMEAIHVLLNFMEKRIDKGSSYREGLTPVLSLLTECSRAHRNIRKFLKDQVLPPLRDVTNRPEVGSTVRNKLVRLMTHVDLGVKQIAAEFLFVLCKERVDSLLKYTGYGNAAGLLAARGLLAGGRGDNWYSEDEDTDTEEYKNAKPNINLITGHLEEPMPNPIDEMTEEQKEYEAMKLVNMLDKLSREELLKPMGLKPDGTITPLEEALSQYSVIEETSSDTD
modifications: phosphoserine at 468, phosphothreonine at 473, and additional positions (Table S1)
